According to patent US20210403506A1 (XDCEXPLORER SHANGHAI, published 2021):
Square brackets hold non-standard residues; d marks the D form. Ends that are not written are not given here. 1Nal = N[C@@H](Cc1cccc2ccccc12)C(=O)O; 2Nal = N[C@@H](Cc1ccc2ccccc2c1)C(=O)O; dNMeY = CN[C@H](Cc1ccc(O)cc1)C(=O)O; NMeF = CN[C@@H](Cc1ccccc1)C(=O)O; Tic = O=C(O)[C@@H]1Cc2ccccc2CN1; NMeL = CN[C@@H](CC(C)C)C(=O)O; NHoSer = not defined here; NMeS = CN[C@@H](CO)C(=O)O; hSer = N[C@@H](CCO)C(=O)O

T1: human Chemokine like receptor 1 (human, UniProt Q99788 1-373)
T1 sequence (looked up): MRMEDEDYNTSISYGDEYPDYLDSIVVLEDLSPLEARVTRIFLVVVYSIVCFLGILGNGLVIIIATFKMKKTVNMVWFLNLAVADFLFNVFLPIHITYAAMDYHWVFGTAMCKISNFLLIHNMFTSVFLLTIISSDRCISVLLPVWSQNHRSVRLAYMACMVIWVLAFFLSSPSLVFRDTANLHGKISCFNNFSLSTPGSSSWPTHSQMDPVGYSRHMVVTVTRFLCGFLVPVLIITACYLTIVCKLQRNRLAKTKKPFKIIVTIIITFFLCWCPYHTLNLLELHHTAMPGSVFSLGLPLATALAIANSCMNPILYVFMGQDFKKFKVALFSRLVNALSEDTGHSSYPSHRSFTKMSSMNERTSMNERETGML

B1: YW-167 (peptide)
peptide: [dNMeY]F[NMeL]P[dS]Q[2Nal][dA][Tic]S-OH
modifications: N-terminus assumed
SMILES: CN[C@H](Cc1ccc(O)cc1)C(=O)N[C@@H](Cc1ccccc1)C(=O)N(C)[C@@H](CC(C)C)C(=O)N1CCC[C@H]1C(=O)N[C@H](CO)C(=O)N[C@@H](CCC(N)=O)C(=O)N[C@@H](Cc1ccc2ccccc2c1)C(=O)N[C@H](C)C(=O)N1Cc2ccccc2C[C@H]1C(=O)N[C@@H](CO)C(=O)O
B2: YW-172 (peptide)
peptide: [dY]F[NMeL]P[dS]QF[dA][Tic][NHoSer]-OH
modifications: reading uncertain; also: printed as (D-Tyr)-Phe-(NMe-Leu)-Pro-(D-Ser)-Gln-Phe-(D-Ala)-Tic-(NHoSer)
B3: YW-165 (peptide)
peptide: [dY]F[NMeL]P[dS]Q[1Nal][dA][Tic]S-OH
modifications: N-terminus assumed
SMILES: CC(C)C[C@@H](C(=O)N1CCC[C@H]1C(=O)N[C@H](CO)C(=O)N[C@@H](CCC(N)=O)C(=O)N[C@@H](Cc1cccc2ccccc12)C(=O)N[C@H](C)C(=O)N1Cc2ccccc2C[C@H]1C(=O)N[C@@H](CO)C(=O)O)N(C)C(=O)[C@H](Cc1ccccc1)NC(=O)[C@H](N)Cc1ccc(O)cc1
B4: YW-168 (peptide)
peptide: [dNMeY]F[NMeL]P[dS]Q[1Nal][dA][Tic]S-OH
modifications: N-terminus assumed
SMILES: CN[C@H](Cc1ccc(O)cc1)C(=O)N[C@@H](Cc1ccccc1)C(=O)N(C)[C@@H](CC(C)C)C(=O)N1CCC[C@H]1C(=O)N[C@H](CO)C(=O)N[C@@H](CCC(N)=O)C(=O)N[C@@H](Cc1cccc2ccccc12)C(=O)N[C@H](C)C(=O)N1Cc2ccccc2C[C@H]1C(=O)N[C@@H](CO)C(=O)O
B5: YW-100 (peptide)
peptide: [dY]F[NMeF]P[dS]QF[dA][Tic]S-OH
modifications: N-terminus assumed
SMILES: C[C@@H](NC(=O)[C@H](Cc1ccccc1)NC(=O)[C@H](CCC(N)=O)NC(=O)[C@@H](CO)NC(=O)[C@@H]1CCCN1C(=O)[C@H](Cc1ccccc1)N(C)C(=O)[C@H](Cc1ccccc1)NC(=O)[C@H](N)Cc1ccc(O)cc1)C(=O)N1Cc2ccccc2C[C@H]1C(=O)N[C@@H](CO)C(=O)O
B6: YW-166 (peptide)
peptide: [dY]F[NMeL]P[dS]QF[dA][Tic][NMeS]-OH
modifications: N-terminus assumed
SMILES: CC(C)C[C@@H](C(=O)N1CCC[C@H]1C(=O)N[C@H](CO)C(=O)N[C@@H](CCC(N)=O)C(=O)N[C@@H](Cc1ccccc1)C(=O)N[C@H](C)C(=O)N1Cc2ccccc2C[C@H]1C(=O)N(C)[C@@H](CO)C(=O)O)N(C)C(=O)[C@H](Cc1ccccc1)NC(=O)[C@H](N)Cc1ccc(O)cc1
B7: YW-164 (peptide)
peptide: [dY]F[NMeL]P[dS]Q[2Nal][dA][Tic]S-OH
modifications: N-terminus assumed
SMILES: CC(C)C[C@@H](C(=O)N1CCC[C@H]1C(=O)N[C@H](CO)C(=O)N[C@@H](CCC(N)=O)C(=O)N[C@@H](Cc1ccc2ccccc2c1)C(=O)N[C@H](C)C(=O)N1Cc2ccccc2C[C@H]1C(=O)N[C@@H](CO)C(=O)O)N(C)C(=O)[C@H](Cc1ccccc1)NC(=O)[C@H](N)Cc1ccc(O)cc1
B8: YW-171 (peptide)
peptide: [dY]F[NMeL]P[dS]QF[dA][Tic][hSer]-OH
modifications: N-terminus assumed
SMILES: CC(C)C[C@@H](C(=O)N1CCC[C@H]1C(=O)N[C@H](CO)C(=O)N[C@@H](CCC(N)=O)C(=O)N[C@@H](Cc1ccccc1)C(=O)N[C@H](C)C(=O)N1Cc2ccccc2C[C@H]1C(=O)N[C@@H](CCO)C(=O)O)N(C)C(=O)[C@H](Cc1ccccc1)NC(=O)[C@H](N)Cc1ccc(O)cc1

Target: T1, human Chemokine like receptor 1
Test: cell-based or functional assay

Row | Binder | EC50 (µM), activation of Tango CMKLR1-bla U2OS cells [µM]
1 | B1 | 0.0008
2 | B2 | 0.0058
3 | B3 | 0.0015
4 | B4 | 0.0012
5 | B5 | 0.042
6 | B6 | 0.005
7 | B7 | 0.0011
8 | B8 | 0.029
